# Results published in patent KR20220147765A (dated 2022).
# Positions count from the first letter of the chain named.
# B1: RB6 (antibody, V domains shown)
# VH: EVQLLESGGGLVQPGGSLRLSCAASGFTFSSYDMSWVRQAPGKGLEWVSGISYSGGSTYYADSVKGRFTISRDNSKNTLYLQMNSLRAEDTAVYYCARDVNFVPLVTFDYWGQGTLVTVSS
# VL: QSVLTQPPSASGTPGQRVTLSCTGSSSNIGSNSVTWYQQLPGTAPKLLIYDDNQRPSGVPDRFSGSKSGTSASLAISGLRSEDEADYYCGTWDYSLSAYVFGGGTKLTVL
# notes: also called SARS-CoV-2 RBD 특이적 IgG 선별항체 RB6; clone RB6
# B2: RD10 (antibody, V domains shown)
# VH: EVQLLESGGGLVQPGGSLRLSCAASGFTFSDYAMSWVRQAPGKGLEWVSAIYPGGGSTYYADSVKGRFTISRDNSKNTLYLQMNSLRAEDTAVYYCARNLFGFDYWGQGTLVTVSS
# VL: B1 VL with L20I, S33A, T35Y, N53S, Q54N, T91S, Y94D
# notes: also called SARS-CoV-2 RBD 특이적 IgG 선별항체 RD10; clone RD10
# B3: RD3 (antibody, V domains shown)
# VH: EVQLLESGGGLVQPGGSLRLSCAASGFTFSDYAMSWVRQAPGKGLEWVSWIYSGSGNKYYADSVKGRFTISRDNSKNTLYLQMNSLRAEDTAVYYCARFPIARTSNSQSSYDGMDVWGQGTLVTVSS
# VL: B1 VL with L20I, T23S, S33A, T35S, D51A, Q54K, T91A, Y94S, S97N
# notes: also called SARS-CoV-2 RBD 특이적 IgG 선별항체 RD3; clone RD3
# Target: T1, SARS-CoV S 단백질의 RBD 항원 (SARS-CoV, UniProt P59594 306-527)
# T1 construct: also called SARS-CoV RBD
# Assay: ELISA, 0.1 μg antigen coated, IgG4
row,Binder,binding result
1,B1,binds
2,B2,binds
3,B3,binds
